The labels stand for the following.
B1: BAG family molecular chaperone regulator 1 (Homo sapiens), Q99933 (parent)
chain: MAQRGGARRPRGDRERLGSRLRALRPGREPRQSEPPAQRGPPPSGRPPARSTASGHDRPTRGAAAGARRPRMKKKTRRRSTRSEELTRSEELTLSEEATWSEEATQSEEATQGEEMNRSQEVTRDEESTRSEEVTREEMAAAGLTVTVTHSNEKHDLHVTSQQGSSEPVVQDLAQVVEEVIGVPQSFQKLIFKGKSLKEMETPLSALGIQDGCRVMLIGKKNSPQEEVELKKLKHLEKSVEKIADQLEELNKELTGIQQGFLPKDLQAEALCKLDRRVKATIEQFMKILEEIDTLILPENFKDSRLKRKGLVKKVQAFLAECDTVEQNICQETERLQSTNFALAE

The first experiment covers variants of B1. Particulars: with hsp7c_human HSPA8, P11142.
Sequence of hsp7c_human HSPA8, P11142 (P11142 whole entry, looked up): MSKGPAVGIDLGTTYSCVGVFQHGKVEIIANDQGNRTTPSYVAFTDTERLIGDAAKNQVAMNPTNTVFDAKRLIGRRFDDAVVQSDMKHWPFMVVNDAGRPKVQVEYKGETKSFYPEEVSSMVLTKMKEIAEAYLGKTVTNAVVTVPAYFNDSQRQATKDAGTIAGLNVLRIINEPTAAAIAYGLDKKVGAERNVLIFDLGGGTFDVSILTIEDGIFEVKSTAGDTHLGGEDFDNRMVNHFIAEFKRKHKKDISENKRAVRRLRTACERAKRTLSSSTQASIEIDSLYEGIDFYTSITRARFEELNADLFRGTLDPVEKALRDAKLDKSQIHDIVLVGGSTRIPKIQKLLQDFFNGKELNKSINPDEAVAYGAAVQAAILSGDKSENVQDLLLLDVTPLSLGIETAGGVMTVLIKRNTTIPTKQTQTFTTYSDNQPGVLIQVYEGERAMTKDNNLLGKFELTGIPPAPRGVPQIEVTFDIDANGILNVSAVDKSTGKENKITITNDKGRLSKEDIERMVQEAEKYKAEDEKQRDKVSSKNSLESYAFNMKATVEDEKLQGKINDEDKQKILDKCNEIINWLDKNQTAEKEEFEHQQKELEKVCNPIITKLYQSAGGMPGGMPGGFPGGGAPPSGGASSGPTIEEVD
Turning to MAQRGGARRPRGDRERLGSRLRALRPGREPRQSEPPAQRGPPPSGRPPARSTASGHDRPTRGAAAGARRPRMKKKTRRRSTRSEELTRSEELTLSEEATWSEEATQSEEATQGEEMNRSQEVTRDEESTRSEEVTREEMAAAGLTVTVTHSNEKHDLHVTSQQGSSEPVVQDLAQVVEEVIGVPQSFQKLIFKGKSLKEMETPLSALGIQDGCRVMLIGKKNSPQEEVELKKLKHLEKSVEKIADQLEELNKELTGIQQGFLPKDLQAEALCKLDRRVKATIEQFMKILEEIDTLILPENFKDSRLKRAGLVKKVQAFLAECDTVEQNICQETERLQSTNFALAE [K309A], the “effect of a mutation on the interaction” value is recorded as “decreasing interaction”.

In a further experiment the parent is B1. The settings on record: with hsp7c_human HSPA8, P11142. The source holds these as a separate data set.
On to MAQRGGARRPRGDRERLGSRLRALRPGREPRQSEPPAQRGPPPSGRPPARSTASGHDRPTRGAAAGARRPRMKKKTRRRSTRSEELTRSEELTLSEEATWSEEATQSEEATQGEEMNRSQEVTRDEESTRSEEVTREEMAAAGLTVTVTHSNEKHDLHVTSQQGSSEPVVQDLAQVVEEVIGVPQSFQKLIFKGKSLKEMETPLSALGIQDGCRVMLIGKKNSPQEEVELKKLKHLEKSVEKIADQLEELNKELTGIQQGFLPKDLQAEALCKLDRRVKATIEQFMKILEEIDTLILPENFKDSRLKAKGLVKKVQAFLAECDTVEQNICQETERLQSTNFALAE [R308A], for which the “effect of a mutation on the interaction” value is “decreasing interaction”.

Values taken from IntAct's records for PubMed 19800331.
